{"source": "patent US20110318377", "key": {"[1]": {"tested_on": "histones purified from calf thymus"}, "[2]": {"tested_on": "full-length synthetic Tat protein (72 amino acids), unmodified"}}, "data": [{"substance": "recombinant G9a (Upstate)", "values": [{"measurement": "in vitro methylation with radiolabeled SAM, autoradiography", "setting": "[1]", "value": "led to the successful methylation of histones as expected"}, {"measurement": "in vitro methylation with radiolabeled SAM, autoradiography", "setting": "[2]", "value": "Incubation with the lysine methyltransferase G9a did not result in methylation of Tat"}]}]}
